# Measurements: the supplement of paper PMC7877785
# ± gives the uncertainty stated by the source.
# Assay: self-splicing fitness, log relative to wild type (ln ratio); higher = more splicing; Tetrahymena group I intron in knt gene, E. coli kanamycin selection, DiMSum; sequences stand for … in CUCUCU…GGAGGGAAAAGUUAUCAGGCAUGCACCUGGUAGCUAGUCUUUAAACCAAUAGAUUGCAUCGGUUUAAAAGGCAAGACCGUCAAAUUGCGGGAAAGGGGUCAACAGCCGUUCAGUACCAAGUCUCAGGGGAAACUUUGAGAUGGCCUUGCAAAGGGUAUGGUAAUAAGCUGACGGACAUGGUCCUAACCACGCAGCCAAGUCCUAAGUCAACAGAUCUUCUGUUGAUAUGGAUGCAGUUCACAGACUAAAUGUCGGUCGGGGAAGAUGUAUUCUUCUCAUAAGAUAUAGUCGGACCUCUCCUUAAUGGGAGCUAGCGGAUGAAGUGAUGCAACACUGGAGCCGCUGGGAACUAAUUUGUAUGCGAAAGUAUAUUGAUUAGUUUUGGAGUACUCGUGGUCG
# Procedure, shortened: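 Colonies from six replicate transformations of E. coli BL21(DE3) were pooled and amplicon-sequenced on an Illumina HiSeq 2500. The library placed an intron with all eight P1ex-region nucleotides randomised inside the knt kanamycin-resistance gene on pET-22b(+), and cells grew overnight at 37°C or 30°C on LB agar with or without 25 μg/mL kanamycin (plus 100 μg/mL carbenicillin, 50 μM IPTG, 0.2% rhamnose). Fitness is the DiMSum error-weighted combination of wild-type-normalised replicate fold changes, kanamycin versus none.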
Sequence,self-splicing fitness (ln) (30 °C),self-splicing fitness (ln) (37 °C)
UAUAAGCAAUAUUACGUCAG,-1.22 ± 0.11,-0.547 ± 0.17
UAUAAGCAAUAUUACGUCAU,-3.37 ± 0.22,-0.173 ± 0.15
UAUAAGCAAUAUUACGUGAC,-2.15 ± 0.19,-0.695 ± 0.3
UAUAAGCAAUAUUACGUGAU,-1.89 ± 0.13,-1.45 ± 0.17
UAUAAGCAAUAUUACGUGGU,-3.76 ± 0.29,-2.53 ± 0.21
UAUAAGCAAUAUUACGUUGG,-2.78 ± 0.13,-2.23 ± 0.17
UAUCAGCAAUAUUACGACCU,-0.529 ± 0.071,0.112 ± 0.1
UAUCAGCAAUAUUACGACGC,-2.09 ± 0.13,-0.508 ± 0.13
UAUCAGCAAUAUUACGCAGG,-1.01 ± 0.055,0.028 ± 0.07
UAUCAGCAAUAUUACGCCAG,-0.548 ± 0.15,-0.584 ± 0.18
UAUCAGCAAUAUUACGCCCC,1 ± 0.34,-1.06 ± 0.41
UAUCAGCAAUAUUACGCCUC,–,-1.96 ± 0.47
UAUCAGCAAUAUUACGCGGA,-0.964 ± 0.081,-0.0724 ± 0.076
UAUCAGCAAUAUUACGCUCG,-0.0189 ± 0.079,0.35 ± 0.12
UAUCAGCAAUAUUACGCUUG,-0.489 ± 0.098,0.0735 ± 0.12
UAUCAGCAAUAUUACGGAGG,-1.18 ± 0.13,-0.979 ± 0.14
UAUCAGCAAUAUUACGGAGU,-2.09 ± 0.068,-0.974 ± 0.09
UAUCAGCAAUAUUACGGAUU,-0.839 ± 0.079,0.0545 ± 0.1
UAUCAGCAAUAUUACGGUUA,-0.0611 ± 0.064,0.0198 ± 0.07
UAUCAGCAAUAUUACGGUUC,-2.42 ± 0.14,0.223 ± 0.12
UAUCAGCAAUAUUACGUGAU,-3.01 ± 0.12,-1.51 ± 0.11
UAUGAGCAAUAUUACGAACC,-2.34 ± 0.4,–
UAUGAGCAAUAUUACGAAGU,-4.08 ± 0.42,-1.93 ± 0.23
UAUGAGCAAUAUUACGAAUG,-2.49 ± 0.17,-1.28 ± 0.18
UAUGAGCAAUAUUACGACGU,-3.11 ± 0.21,-2.62 ± 0.3

Sequence,self-splicing fitness (ln) (30 °C),self-splicing fitness (ln) (37 °C)
UAUGAGCAAUAUUACGAUUU,-3.29 ± 0.26,-1.76 ± 0.22
UAUGAGCAAUAUUACGCAGG,-2.59 ± 0.26,-2.34 ± 0.22
UAUGAGCAAUAUUACGCGCG,-2.51 ± 0.31,-1.01 ± 0.27
UAUGAGCAAUAUUACGCGGC,-4.02 ± 0.29,-1.8 ± 0.25
UAUGAGCAAUAUUACGCGGG,-2.75 ± 0.3,-1.6 ± 0.23
UAUGAGCAAUAUUACGCUAA,-1.99 ± 0.23,-2.39 ± 0.25
UAUGAGCAAUAUUACGCUCU,-3.16 ± 0.41,–
UAUGAGCAAUAUUACGCUGC,-4.14 ± 0.31,-2.78 ± 0.3
UAUGAGCAAUAUUACGGACA,-2.64 ± 0.35,-2.28 ± 0.29
UAUGAGCAAUAUUACGGAGA,-2.48 ± 0.28,-2.34 ± 0.27
UAUGAGCAAUAUUACGGAUU,-2.96 ± 0.28,-2.28 ± 0.31
UAUGAGCAAUAUUACGGCAA,-2.46 ± 0.38,-2.15 ± 0.3
UAUGAGCAAUAUUACGGCCA,–,-1.18 ± 0.28
UAUGAGCAAUAUUACGGGGA,-2.94 ± 0.39,–
UAUGAGCAAUAUUACGGUCG,-2.52 ± 0.12,-1.19 ± 0.12
UAUGAGCAAUAUUACGUCAU,-3.16 ± 0.2,-2.38 ± 0.23
UAUGAGCAAUAUUACGUGCA,-2.09 ± 0.13,-2.32 ± 0.15
UAUGAGCAAUAUUACGUUGC,-2.19 ± 0.19,-2.65 ± 0.23
UAUUAGCAAUAUUACGACAU,-1.63 ± 0.017,-0.705 ± 0.035
UAUUAGCAAUAUUACGACGG,-0.886 ± 0.35,0.0207 ± 0.33
UAUUAGCAAUAUUACGAGCG,-0.705 ± 0.11,-0.219 ± 0.15
UAUUAGCAAUAUUACGAGUC,-3.35 ± 0.48,–
UAUUAGCAAUAUUACGAUAG,-0.949 ± 0.16,-0.79 ± 0.17
UAUUAGCAAUAUUACGAUUA,0.102 ± 0.13,-0.402 ± 0.12
